Biological target: human IL-23 (human) (UniProt Q9NPF7)
Assay: cell-based or functional assay

Chain of human IL-23 (human) (Q9NPF7 20-189, chain 1 of 2): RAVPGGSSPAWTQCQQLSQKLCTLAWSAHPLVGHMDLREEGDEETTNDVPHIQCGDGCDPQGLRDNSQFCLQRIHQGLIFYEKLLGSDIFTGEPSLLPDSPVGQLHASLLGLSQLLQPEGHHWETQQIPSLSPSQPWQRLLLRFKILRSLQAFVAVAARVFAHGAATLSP
Chain of human IL-23 (human) (P29460 23-328, chain 2 of 2, further chain): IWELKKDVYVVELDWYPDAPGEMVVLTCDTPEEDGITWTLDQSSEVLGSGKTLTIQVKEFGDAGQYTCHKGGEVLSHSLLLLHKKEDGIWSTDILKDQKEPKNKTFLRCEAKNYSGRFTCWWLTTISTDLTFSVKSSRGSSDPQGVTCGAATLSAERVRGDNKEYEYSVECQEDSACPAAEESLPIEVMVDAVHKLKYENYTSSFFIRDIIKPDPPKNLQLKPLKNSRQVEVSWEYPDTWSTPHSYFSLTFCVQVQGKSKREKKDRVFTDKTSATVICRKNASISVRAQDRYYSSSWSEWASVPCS

EC50 [nM] AVERAGE, hIL-23-induced proliferation of Ba/F3 cells expressing hIL-23R and hIL-12Rβ1: 2.4 nM | EC50 [nM] Exp 1, hIL-23-induced proliferation of Ba/F3 cells expressing hIL-23R and hIL-12Rβ1: 1.9 nM | EC50 [nM] Exp 2, hIL-23-induced proliferation of Ba/F3 cells expressing hIL-23R and hIL-12Rβ1: 2.3 nM | EC50 [nM] Exp 3, hIL-23-induced proliferation of Ba/F3 cells expressing hIL-23R and hIL-12Rβ1: 3.5 nM | EC50 [nM] Exp 4, hIL-23-induced proliferation of Ba/F3 cells expressing hIL-23R and hIL-12Rβ1: 2 nM | IC50, hIL-23-induced proliferation of Ba/F3 cells expressing hIL-23R and hIL-12Rβ1: 11.1 nM
Substance: benchmark antibody ustekinumab (Stelara, obtained from Janssen-Cilag)

From patent US20200148733A1
